# According to the DeepSol protein solubility set:
# Experiment: soluble on expression in E. coli; label from the status in PepcDB or PDB records
row,Sequence,soluble on expression in E. coli
1,MSLGKYFGTDGVRGVANSELTPELAFRLGRMGGYVLTRHVGEHPRVLVARDTRISGEMLESALIAGLVSVGIEVMRLGVISTPGVAYLTKAQGASASVMISASHNPVDDNGIKFFGSDGFKLSDDQEEEIEQLLDTAEDTLPRPSGEGLGTVSDYFEGKQKYIQYLKQTIENDFNGYHIALDCANGATSGLATHLFADLDADISSMGASPNGLNINDGVGSTHPEALAAFVLDKKADVGLAFDGDGDRVIAIDEIGQIVDGDKIMFICAKYLREQGLLNNNTIVSTVMSNLGFYKGLKELEIEDVQTAVGDRYVVEAMREGNYNLGGEQSGHIIFLDHNTTGDGLLSGIQLINVMKATGKKLSELAAEMKTFPQKLENIRVSDKNHVTDNPKVSKVIGEVEAEMAGNGRVLVRPSGTEPLVRVMVEAATKEETDEYCERISAVVRSEMALNDEGHHHHHH,soluble
2,GMTTTQPEAKDRISSLPVPDATQVPEGVRKLWAKAEANIGFVPNVFRAQAVNGEQFLAWWNYFNLLLNKEGYLTNAERELVAVVVSGVNRCLYCAVSHGAALREFLGDPQKADAVAVNWRHADLTEREQALAAYAEKLTRHPAEVTAADLEPLRAVGLDDHQIMELVQVIGMFNLTNRVSSALGFVPNPEYYRQAR,soluble
3,KVYSLRLNQKRNEKPSIFANENVRKALAYALDKKSLVDNILADGSKEIYGYIPEKFVYNPETNEDFRQEAGALVKTDAKKAKEYLDKAKAELNGDVAIELLSRDGDSDRKVAEFIQGQLQETLPGLTINVKTVPLNNAIELMRKGDYELSVGMWGPDYQDPMTFLESSVSGNRMNYSSPTFDQLIEEATTKYANEPETRWQTLIKAEKVLVEEDAALIPLYQEA,not soluble
4,MSYTATNQPVRAPPLNSDYELIDGDPYFTRVVSYFRFSDYVNWAVITASFPLGMKLWEKIVPSQGKGLKPSVVNPVTLRVSTLLGFFGGFCLNYVKSSQRFLGWRENSREVKLDRFEIKQKLSQGVLPYNEHLSKLDDRNKDISNRNSQYSHALLFVIPWFNTTYHPYHQVDLKKYYINREGEENWGFELKPLDEIYAKYGKKF,not soluble
5,MGSDKIHHHHHHMYTQDNVISNNKRLSSFQLSKMHTFEVAARHCSFSLAAEELSMTPSAISHRINALESELGILLFKRSHRKIELTKEGERIYIAVKSSFSSLNQEILEVKSNEISGELTVYSRPSFAQCWLVPRIAGFQKQYPAISLNILTGNENINFHGHGIDVAIYFDEKQPSKLYCQDIMTETIVPVCSPEYAEEFDLIGKINNLSQCTLLHDNQAWGYDSNTDEWALWANNFNINCLASSASIRFDRSDLAVIAAMNNAGVAMGRESFISNQIKRGELIKPFIDKKILCPQRYYVATLPNNKNTKIELFIEWLKNEVQNEGGESIV,not soluble
6,MGSDKIHHHHHHMKFKERLQYLRLEKELSEIQLSKKVGISESVIRLYERGKLRIDLEHLHKLAAFFDVTPGLLLGTAFPHLPPEEALESYRVVNKLLEIRNEERKDEEDSPLFIDTLAQLAAESNKSDNKASNRQATIRAGVVAVYHKIVSAHSEANQEFIEDYWPVNTTVMQIYGHDISNYFYLRVHGDFMEPTIKNQSIVLAKRQVQVDNNDLAVVLYEQSPAAVKRLNRYEDKIILLCDNKAHPAQICEQEKCIILGKVLWKPK,not soluble
7,MLASIVISSVHSIGTGALECRATHRGHRAGPYLSSSETRHRAAISGTVDMRETKQGLRHSGRSPSVASPKIDELIGRPQPDTIRLSRGRPVRNS,not soluble
8,MAHHHHHHMAERSSTLVINEAKTKNRLSDSLRSPTDRTREHLISHRNFSSVLESAADCTSASSTPDLQEEEDVQHKRALDLFSATPHSGEFSPLIEWLLRRGERGDVGAPTASQKDGDEYTQASFFNEDYIMNLCAAATAVLGKEPALLDLEVVAHDTLVVVGDIHGQFQDLYTSVLCQQYDRRRCNPEGRDCRFLFMGDYVDRGPHSLEVVLLLLALKVEYPTLVYLTRGNHEEEKTSRVYGFLTEATSSLGAAAGTAVWSAVNKVFLDLPLAAIVQTLYMRFFVTHGGLSPGLQNVEVICALERHNYSCGNITAAEDDLIAGLLWSDPTNEVAMYKRNPRGCGFLFGPSASNRFCADNNFDFICRAHQVAMEGYMWTHNDRVLTVFSAPNYCGVNRNKGAVLLIKGYSRRPIVQQYDSAEKSEAAPARKTDFAFADMFA,not soluble
9,MGSDKIHHHHHHMIMKFFDREREINEILGILDETPDNIYFIYGPINSGKTTLMMEIINRLKDDKKYRIFYYNLRGVRISSYSDFFDIMFEIREDNKFKQMVKDADVLVEGIKFIEKTAKLFNESIILPSDLAKVILSKQKGFDVFRYLERVFREMNKKGLKPVIIIDELQRLKGLKSNGELIDDLFNFFVRLTKELHITHCFCLSSDSLFIEYVYDRAELRGRADYILVDDFDKETALKFMDFLSEDILGRKLSEDEKELIYSYVGGKPKDVYDVIIKLKLGKELKDILEFMLKEEIQKLKYFLEDVKEDDEELYNKIVDALKIFKENYEIEDIKIPKNIREFLVKKNILFLNPIEGTLKPQSFLVWNAIKKLLNGH,not soluble
10,MLENYARFITAASAARNPSPIRTMTDILSRGPKSMISLAGGLPNPNMFPFKTAVITVENGKTIQFGEEMMKRALQYSPSAGIPELLSWLKQLQIKLHNPPTIHYPPSQGQMDLCVTSGSQQGLCKVFEMIINPGDNVLLDEPAYSGTLQSLHPLGCNIINVASDESGIVPDSLRDILSRWKPEDAKNPQKNTPKFLYTVPNGNNPTGNSLTSERKKEIYELARKYDFLIIEDDPYYFLQFNKFRVPTFLSMDVDGRVIRADSFSKIISSGLRIGFLTGPKPLIERVILHIQVSTLHPSTFNQLMISQLLHEWGEEGFMAHVDRVIDFYSNQKDAILAAADKWLTGLAEWHVPAAGMFLWIKVKGINDVKELIEEKAVKMGVLMLPGNAFYVDSSAPSPYLRASFSSASPEQMDVAFQVLAQLIKESL,soluble
11,MGSDKIHHHHHHMRIDVDAFKVLEVLVEEGSFAKAAERLHKAQSAVSYQIKKLEQHLGVSLLSREQYRAELTAEGRVILAEGQRLLSHLANIEHLASRFSEGWEPKLELVIDGALPMEPIMTALKRMAEHQIPTKIQLNMEFLGGVQHRFERDNADLMLVKDYRTGPYYYAKPLPAITSVLLAAPHHPLAGRKALTLTELQQHVELTIEDSSPVKTYRDELQFGGDKVFYLSGFIMKKNALLKGLGFGWMPDFLVRDELKAGLLTEIDFVGGSRYTFVPQLVSTLERPLGRAGRLFTELILEEFAKEPMGIPEGLG,not soluble
12,MGSDKIHHHHHHMIFTLPNTTTQEIAKTLVKIRDTGGQVTTSRVLTLIVVARDTSDVEGIIRATNEASQEHPSRVIILVAGSHEGESQVDAEVRIGGDAGASEMILIKLAGRVAKHLVHVVTPLLLPDTPIVAWWPSSAPINPAEDPIGKIAQRRITDSHFDPPVDALYNRRNHYAPGDSDFSWARLTPWRGVLASSLDQAPYEMVQDVRVYGESDCPSVDLAAGWLCERLGISVERHNYGSGSAAFDDAGLAKIPVKRIELERPSGCVVIEALDDDQTLSVSIPGRSTAHVAVTRRSQADCLAEELRHLDPDIAYARALRGLSRVSYPTQ,not soluble
13,GSDTPSNLMGKQQWKALVEEAIHSDWVKFRFQAAKNTWGKVFHNEVFSSIEKDGETYRANQYLFALEQLDATNIFDQYVIESMIKMLESGELNDPVAINIAQSSLSQPSFIRWTTNMLEKHSKVASKLHFEIPEECFIDHPHHTALLCNAIRQSGAEFGVDNYGRNFQSLEYIQEFRPNYVKLDYLFTHNLHDEKQKFTLTSISRTAHNLGITTIASRIETQIQLDFLTEHFVEVFQGFIVDKE,not soluble
14,MSLKTSHLKEVPETLAMRESLRDRCAQVAAKLDRSHPMTKDEMEQISRRMLEEADLPESYLGWVMVMISSEFWADALASVPPERRLFLLPHCLKHAEGCPAEYDQFGMNCKECGACSIADFRSIAEDMGYRVLVAEGSPVVMKIIVGGYVDAVVGVACLNVLEKAIDKVLLAGIPCMAVPLLSSDCRNTKVDEPWVEQMIRTPYKPAAAKTKSYVHLMRAAGLLFEDTLFERLAEGHHHHHH,not soluble
15,MVKFTTFLCIIALLLCSTLTHASARLNPTSVYPEENSFKKLEQGEVICEGVGEEECFLIRRTLVAHTDYIYTQNHNP,soluble
16,MSLQEELSVLLKAQYPLIYLVTSEEERAEQAVYRIVQEVTRHQRLFVWTVTHGFREYGVAQQKTHHNTMSPEAAIEWVVRQEPGIFIFKDLHPFISSPAVTRWLREAIASFKGTEKAIILMSPYQETPIELEKDVVVLDFALPDLVTLDGVLGQQLGKSRHALGEDSREKLLKAALGLTKDEAEKVYRKAYVKAGQLTEGEVEIVLSEKKQMIRRNEGHHHHHH,soluble
17,MGSDKIHHHHHHMPALAHRRSDIASGTRTTALTDHRFRGRITSFTRQVPKLMNKQQGNTPVHIWRVDFEGMEMRTTSSDGIHVWIARDDVMEALQIPDPGYALSFVTPEDQAALSSGTDVPDEEDEPDGLPMINEIAVYEIMARFPTPPTGRFKPWLLRLRHLFFELMTRDDEATFLLQ,not soluble
18,MATRLNISFDSDLLESISSEFDLRAPNKEALRQLVFTLDGDYEPSIMQVLNLATGVGKTYLMAAFVEYLRRQGVGNVVIVTPGKTVQAKTVQNFTPGSPRYITGSVVPPEVVTPQDYSAWVARQNGAAQLSFGHEVPILAFIFNIQQLIAPKSTEGDTHGNTQDAMRRKPRRFDENAGVLFDYLKGLDDLVVIADESHLYGSSAIAFNAALKELDPAATIGLTASVDKKSDHVIYHYPLFRAIQDKYVKAPVLAFRKTGYGTDEASEEQQLRDALQLRSIKQVYYDSFAASENRKHVNAVVFVVCSDVDHATQVTELLRSPEYLGNDDAVLQVDSKHEDELTQRRLNELDRPHSPVLAVVSVNKLKEGWDVRNIAVVVTLRAMASEVLTQQTMGRGLRLPFGHYTGVWQIDQLDIIAHQSFTELLNAENVLHQFGLEEAVADLDKAQVEAAILKAAETATSPRLGTSLTDTGVIQPGDVAAHEAGVWLIGDSSNSDDLQAGIVPVGGENSTRTPSVGVREITDPAPEGGTGWELVSIERNPAFADVTYQFPVTTMTVQQPSIDLSEIGDDTIEQAARRVTSAGDVLLRKEIIAVLGKKLRAEDRESAEVDSVHVDEDDAKNALVKLVLNMSLVPKTEQTARYVAAFLVPKFMQSVMFSGWTVKSLDSARTELLKLIQNYTVETLRSTREVPSIHPKSMPSNGYTLPLGQKVHDQIETREQFVRSQVYGGWFKSLFAEESFDSFTGEYQLARLLNTSPGIVWWHRLHPQDQAFVFYNAKDRYFPDFVAMDVNGVHWIIEGKSERGRDDAQVQAKRKAAEALVRRLVAEDAYADQLWGYLIAYEQDIARADSWEDLKAFASPVNNAL,not soluble
19,MSDRYRFTILGCGSSPGVPRPNGDWGACNPNNPKNKRYRSSLLVERIHKSGKKTTIVIDTGPDFRSQMIDACVNHLDAALYTHSHADHIHGIDDLRSYALAQKSLIDIYADSFTLRHLKNAFGYCFQTPKGSSYLPILKAHLINEDSQFIIQGQGGAIHVNTHLQLHGSIHSLGFRIGNVAYCTDVSQFPKKTLPKLMNLNVLIIEALQFKSHPSHLSVDQALQWIKYLQPKQAILTHMDRSLDYNEVINYLPPHVKPAYQGLIFEADA,not soluble
20,MSYTHILVAVAVTPESHQLLAKAVSIARPVQAKVSLITLASDPELYNQFAAPMMEDLRAVMHEETENFLKMLGEKADYPIEQTFIASGELSQHILAVCRKHHVDLVICGNHNHSFFSRASCSAKSVVSASQVDVLLVPLAGD,not soluble
21,SLSLRPSPRLLCTATKQKNSGQNLEEDMGQSEQKADPPATEKTLLEEKVKLEEQLKETVEKYKRALADTENLRQRSQKLVEEAKLYGIQAFCKDLLEVADVLEKATQCVPKEEIKDDNPHLKNLYEGLVMTEVQIQKVFTKHGLLKLNPVGAKFDPYEHEALFHTPVEGKEPGTVALVSKVGYKLHGRTLRPALVGVVKEA,soluble
